Laboratory results as given in article PMC6853952, “MUC4-ErbB2 Oncogenic Complex: Binding studies using Microscale Thermophoresis” (Scientific Reports, 2019).

Tests used:
[1] = molecular target: eGFP-MUC4β fusion protein (transmembrane β subunit of MUC4) (human) (UniProt Q99102); test: MST; normal model: eGFP fusion in CHO-K1 lysate kept constant, ErbB2-Fc titrated, label-free; lysis buffer RIPA, dilution in PBS; 23 °C
[2] = molecular target: eGFP-MUC4β fusion protein (transmembrane β subunit of MUC4) (human) (UniProt Q99102); test: MST; normal model: eGFP fusion in CHO-K1 lysate kept constant, ErbB2-Fc titrated, label-free; lysis buffer MPer, dilution in MST buffer; 23 °C
[3] = molecular target: eGFP-MUC4β fusion protein (transmembrane β subunit of MUC4) (human) (UniProt Q99102); test: MST; normal model: eGFP fusion in CHO-K1 lysate kept constant, ErbB2-Fc titrated, label-free; lysis buffer RIPA, dilution in Tris-based MST buffer; 23 °C
[4] = molecular target: eGFP-MUC4β fusion protein (transmembrane β subunit of MUC4) (human) (UniProt Q99102); test: MST; normal model, optimised conditions: MPer lysate with the eGFP fusion kept constant around 33 nM, Fc protein titrated 1:1 in PBS with 0.05% P20 from 1 µM to 0.05 nM; 80% MST power, MST-on 30 s; blue LED
[5] = molecular target: T1, recombinant human ErbB2-Fc chimera (human, UniProt P04626 23-652); test: as above; conditions: one partner purified
T1 construct: ErbB2 receptor tyrosine kinase, human; extracellular domains, lacks the TM and CT part; Described as a disulfide-linked homodimeric protein; In the reverse model it was labelled on its 6His-tag with RED-tris-NTA dye (not covalent); also called recombinant ErbB2

[6] = molecular target: T1, recombinant human ErbB2-Fc chimera; test: MST; reverse model: ErbB2-Fc labelled on its 6His-tag with RED-tris-NTA dye kept constant, MPer lysate containing the eGFP fusion titrated 3:1 in PBS with 0.05% P20 (up to about 400 nM); red LED, 80% MST power; conditions: one partner purified

| Kd [1] [nM] | Kd [2] [nM] | Kd [3] [nM] | Kd [4] [nM] | Kd [5] [nM] | Kd [6] [nM] | Molecule |
| --- | --- | --- | --- | --- | --- | --- |
| > 20000 | > 20000 | > 20000 | 131 |  |  | recombinant human ErbB2-Fc chimera (from UniProt P04626 23-652) (Fc fusion) |
|  |  |  | > 20000 |  |  | PD-1-Fc (non-relevant protein containing the same Fc as recombinant ErbB2) (from UniProt Q15116 25-170) (Fc fusion) |
|  |  |  |  | 79 ± 18 | 65 ± 14 | eGFP-MUC4_(EGF3+1+2) (truncated mutant encompassing only the EGF domains of MUC4) (domain or fragment, human, UniProt Q99102 5118-5360, looked up, MUC4, UniProt Q99102; said to hold the three EGF-like domains EGF3, EGF1 and EGF2 with what lies between; source: CHO-K1, transfected (peGFP-C1), selected, in cell lysate, used without further purification) QNQSCPVNYCYNQGHCYISQTLGCQPMCTCPPAFTDSRCFLAGNNFSPTVNLELPLRVIQLLLSEEENASMAEVNASVAYRLGTLDMRAFLRNSQVERIDSAAPASGSPIQHWMVISEFQYRPRGPVIDFLNNQLLAAVVEAFLYHVPRRSEEPRNDVVFQPISGEDVRDVTALNVSTLKAYFRCDGYKGYDLVYSPQSGFTCVSPCSRGYCDHGGQCQHLPSGPRCSCVSFSIYTAWGEHCE |
